Here are results for six molecules from patent publication US7387779B2, “Anti-angiogenic proteins and fragments and methods of use thereof” (Beth Israel Deaconess Medical Center, priority 1998, dated 2008).

For data set [1], the system named is C-PAE cells. As to the kind of experiment: Annexin V-FITC apoptosis assay. The data set is classed as cell-based, bovine. The conditions noted are these: for Apo (Annexin V-FITC assay): Table 4; for IC50, induction of endothelial cell apoptosis: 10% FBS. Here is the method:
Fifty thousand C-PAE cells were added to each well of a 6-well tissue culture plate in DMEM supplemented with 10% FBS for 12 hours. Fresh medium together and either 5 μg/ml Arresten or 40 ng/ml TNFα (positive control) was added at 2, 4 and 6 hour time points. Control wells received an equal of volume of PBS. Detached cells and adherent cells were pooled together and centrifuged at 1500 rpm. Cells were washed with binding buffer (Clontech, Palo Alto, Calif., USA), and phosphatidyl-serine (PS) externalization, an indicator of apoptosis, was measured by labeling with FITC-labeled annexin V (Clontech) according to manufacturer's instructions. Annexin-FITC labeled cells were counted using a FACStar Plus flow cytometer (Becton-Dickinson, Waltham, Mass., USA). For each treatment, 10,000 cells were counted and stored. […] Relative to controls, the percentage of annexin-V-stained (apoptotic) cells increased to about 27% at 2 hours, and near 20% at 4 and 6 hours for the positive control, TNFα. For Arresten-treated cells, the percentage of apoptotic cells was about 18% at 2 hours, and about 23% at 4 and 6 hours.
Annexin V-FITC Labeling. In order to establish apoptosis as the potential mode of action for Canstatin, Annexin V-FITC was used to label externalized phosphatidylserine (PS), to assess apoptotic cells. 0.5×10^6 C-PAE cells, PC-3, 786-O and HEK 293 cells were added to each well of a 6 well tissue culture plate in 10% FBS supplemented DMEM (BioWhittaker, Walkersville, Md., USA) overnight. The next day, fresh medium was added to all wells together with 40 ng/ml TNF-α (positive control) or 15 μg/ml Canstatin. Control cells received an equal volume of PBS. After 24 hours of treatment, medium containing detached cells was collected and attached cells were trypsinized and combined with detached cells and centrifuged at 3,000×g. Cells were then washed and phosphatidyl-serine externalization (an early apoptotic indicator) was measured by labeling with FITC-labeled annexin V (Clontech, Palo Alto, Calif., USA) according to the manufacturer's instructions. Annexin V-FITC-labeled cells were counted using a FAC Star Plus flow cytometer (Becton-Dickenson, Waltham, Mass., USA). For each treatment 15,000 cells were counted and stored in listmode.
C-PAE cells (0.5×10^6 per well) were seeded onto a 6-well plate in 10% FCS supplemented DMEM. The next day, fresh medium containing 10% FCS was added with either 80 ng/ml of TNF-α (positive control) or Tumstatin ranging from 0.02 to 20 μg/ml. Control cells received an equal volume of PBS. After 18 hours of treatment, medium containing floating cells was collected, and attached cells were trypsinized and centrifuged together with floating cells at 3,000×g. The cells were then washed in PBS and resuspended in binding buffer (10 mM HEPES/NaOH, pH 7.4, 140 mM NaCl, 2.5 mM CaCl2). Annexin V-FITC (Clontech, Palo Alto, Calif., USA) was added to a final concentration of 150 ng/ml, and the cells were incubated in the darkness for 10 minutes. The cells were washed again in PBS and resuspended in binding buffer. Annexin V-FITC labeled cells were counted using a FACStar Plus flow cytometer (Becton-Dickinson, Waltham, Mass., USA). For each treatment, 15,000 cells were counted and stored in listmode.
Apoptosis was measured by Annexin V-FITC assay, using the ApoAlert kit (Clontech, Palo Alto, Calif., USA). Propidium iodide was used to stain the nuclei of cells that had died by ways other than apoptosis.
The assay was performed as described above, by treating C-PAE cells with Tumstatin-44-131 for 18 hours. Control cells received PBS.

In data set [2] the test system is PC-3 tumors. The conditions noted are these: for tumor volume on day 10: 20 mg/kg i.p. daily for 10 days, control 202.8±50.0.
Method: In a second PC-3 experiment, PC-3 cells were harvested from culture and 3 million cells were injected into 6- to 7-week-old athymic nude mice, and tumors were allowed to grow subcutaneously for approximately 2 weeks after which the animals were divided into groups of four mice. Experimental groups (4 mice) were injected daily I.P. with Canstatin at a dosage of 3 mg/kg in a total volume of 0.2 ml of PBS or endostatin at a dosage of 8 mg/kg in the same volume of PBS. The control group (4 mice) received equal volumes of PBS each day. Tumor length and width were measured using a Vernier caliper and the tumor volume was calculated using the standard formula: length×width^2×0.52. Tumor volumes ranged from 26 mm^3 to 73 mm^3, and the calculated tumor volume on a given day was divided by the volume on treatment day 0 to produce a fractional tumor volume (V/V0), as described above.
Data set [3] has as its system 786-O tumors. Put plainly: 786-O renal cell carcinoma xenograft. The class given is in vivo, athymic nude mice. The conditions noted are these: for inhibition of tumor growth compared to placebo: 10 mg/kg I.P. daily, 10 days. Here is the method: In the first group of six mice, the tumors were allowed to grow to about 700 mm^3. In a second group of six mice, the tumors were allowed to group to 100 mm^3. Arresten in sterile PBS was injected I.P. daily for 10 days, at a concentration of 20 mg/kg for the mice with tumors of 700 mm^3, and 10 mg/kg for the mice with tumors of 100 mm^3. Control mice received either BSA or the PBS vehicle. […] Tumors in the Arresten-treated mice shrank from 700 to 500 mm^3, while tumors in BSA-treated and control mice grew to about 1200 mm^3 in 10 days. […] The tumors were allowed to grow to either about 100 mm^3 or about 700^3. Each group contained 6 mice. Canstatin in sterile PBS was injected I.P. daily at a concentration of 10 mg/kg for 10 days. The control group received the same volume of PBS. The results are shown in FIGS. 17C (100 mm^3 tumors) and […] (700 mm^3 tumors). In both groups, the Canstatin-treated (.box-solid.) tumors actually shrank relative to the controls (□). Tumstatin's effect on another established primary tumors in mice was also studied. […] Tumstatin was intraperitoneally injected daily (6 mg/kg) for 10 days in sterile PBS. The control group received BSA injections. […] E. Coli-produced Tumstatin at 6 mg/kg inhibited the tumor growth of 786-O human renal cell carcinoma as compared to the BSA control (FIG. 27B). […] Each point represents the mean i SE of 5-6 mice per group. Data points marker with an asterisk were significant, with P<0.05 by one tailed Student's t test. […] The tumors were allowed to grow to a size of about 100-150 mm^3. The mice were then divided into groups of 5, and were injected daily intraperitoneally with 20 mg/kg of the E. Coli-expressed truncated Tumstatin lacking the 53 N-terminal amino acids (Kalluri, R. et al., 1996, J. Biol. Chem. 271:9062-68) for 10 days. Control mice received PBS injection. The results are shown in FIG. 28, which is a graph showing increase in tumor volume (y-axis) against day of treatment (x-axis) for control mice (□) and mice treated with the Tumstatin mutant N53 (●). […] Each point represents the mean ±SE of 5-6 mice/group. Data points marked with an asterisk were significant, with P<0.05 by one-tailed Student's t test.

B1: Tumstatin: NC1 domain of the α3 chain of type IV collagen, residues 1-244 (SEQ ID NO:10) (protein, listed as Homo sapiens)
chain: GLKGKRGDSGSPATWTTRGFVFTRHSQTTAIPSCPEGTVPLYSGFSFLFVQGNQRAHGQDLGTLGSCLQRFTTMPFLFCNVNDVCNFASRNDYSYWLSTPALMPMNMAPITGRALEPYISRCTVCEGPAIAIAVHSQTTDIPPCPHGWISLWKGFSFIMFTSAGSEGTGQALASPGSCLEEFRASPFLECHGRGTCNYYSNSYSFWLASLNPERMFRKPIPSTVKAGELEKIISRCQVCMKKRH
For the molecule B1, the annexin fluorescence result in data set [1] (2 μg/ml, 18 hours) is on record as “mild shift”; in data set [1] (20 μg/ml, 18 hours), “distinct shift of annexin fluorescence peak”; in data set [1] (concentrations below 0.2 μg/ml), “did not demonstrate any annexin V positivity”. In addition, in data set [1], the “Apo (Annexin V-FITC assay)” value came out at 10 µg. Also, the “tumor volume on day 10” value in data set [2] amounted to 82.9±25.2 mm^3; in data set [3] (6 mg/kg i.p. daily, start 600-700 mm^3, control 1096±179.7), 619±120.7 mm^3.

B2: Tumstatin-44-131: residues 44 to 131 of full-length Tumstatin (SEQ ID NO:33) (protein)
chain: FSFLFVQGNQRAHGQDLGTLGSCLQRFTTMPFLFCNVNDVCNFASRNDYSYWLSTPALMPMNMAPITGRALEPYISRCTVCEGPAIAI
modifications: Tumstatin-45-132 (amino acids 45-132 of SEQ ID NO10)
Regarding B2, the annexin fluorescence result in data set [1] (5 μg/ml Tumstatin-44-131, 18 hours) was “distinct shift of the fluorescence intensity peak”. The “Apo (Annexin V-FITC assay)” value in data set [1] was “active”.

B3: Tum-1: residues 54 to 244 of Tumstatin, lacking the N-terminal 53 amino acids (SEQ ID NO:22) (protein)
chain: QRAHGQDLGTLGSCLQRFTTMPFLFCNVNDVCNFASRNDYSYWLSTPALMPMNMAPITGRALEPYISRCTVCEGPAIAIAVHSQTTDIPPCPHGWISLWKGFSFIMFTSAGSEGTGQALASPGSCLEEFRASPFLECHGRGTCNYYSNSYSFWLASLNPERMFRKPIPSTVKAGELEKIISRCQVCMKKRH
modifications: Tum-1 (Tumstatin N-53) (amino acids 54-244 of SEQ ID NO10)
Regarding B3, in data set [1], the “IC50, induction of endothelial cell apoptosis” value is given as “about 5 μg/ml” and the “Apo (Annexin V-FITC assay)” value turned out to be 5 µg. Besides, the anti-tumor activity entry in data set [2] (PC3 prostate xenograft model, 5 mg or 20 mg per kilogram) was “substantial anti-tumor activity”. The “tumor volume on day 10” value in data set [3] (start 100-150 mm^3, 6 mg/kg in the result sentence (20 mg/kg in the method), control 345.0±24.0) worked out at 110.0±29.0 mm^3.

B4: Canstatin: NC1 domain of the α2 chain of Type IV collagen (SEQ ID NO:6) (protein, listed as Homo sapiens)
chain: VSIGYLLVKHSQTDQEPMCPVGMNKLWSGYSLLYFEGQEKAHNQDLGLAGSCLARFSTMPFLYCNPGDVCYYASRNDKSYWLSTTAPLPMMPVAEDEIKPYISRCSVCEAPAIAIAVHSQDVSIPHCPAGWRSLWIGYSFLMHTAAGDEGGGQSLVSPGSCLEDFRATPFIECNGGRGTCHYYANKYSFWLTTIPEQSFQGSPSADTLKAGLIRTHISRCQVCMKNL
In the case of B4, the induction of apoptosis entry is reported as “specifically induce apoptosis of endothelial cells” in data set [1] (15 μg/ml Canstatin, 24 hours) and “induced apoptosis” in data set [1] (concentrations above 1 μg/ml). Further, the “tumor suppression compared with endostatin” value in data set [2] (3 mg/kg Canstatin) is given as “same suppressive effect as 8 mg/kg of endostatin”. In data set [2] (athymic (nu/nu) mice), the “treated tumors, fold less than placebo” value came to 2.4 fold. Moreover, in data set [2] (mouse, in vivo), the “condition of mice during treatment” value is “appeared healthy with no signs of wasting”. The “inhibition of tumor growth compared to placebo” value was 3 fold in data set [3] (large (700 mm^3) tumors) and 4 fold in data set [3] (small (100 mm^3) tumors).

B5: Can-1: N-terminal 114 amino acids of full-length Canstatin (protein, listed as Homo sapiens)
chain: VSIGYLLVKHSQTDQEPMCPVGMNKLWSGYSLLYFEGQEKAHNQDLGLAGSCLARFSTMPFLYCNPGDVCYYASRNDKSYWLSTTAPLPMMPVAEDEIKPYISRCSVCEAPAIA
Consider B5, for which the induction of apoptosis entry in data set [1] (concentrations above 1 μg/ml) is listed as “induced apoptosis”; in data set [1] (concentrations of less than 1 μg/ml), “most potent in inducing apoptosis”.

B6: endostatin: tumor associated angiogenesis inhibitor used as comparator (protein, UniProt P39060 1572-1754, looked up)
Endostatin: HSHRDFQPVLHLVALNSPLSGGMRGIRGADFQCFQQARAVGLAGTFRAFLSSRLQDLYSIVRRADRAAVPIVNLKDELLFPSWEALFSGSEGPLKPGARIFSFDGKDVLRHPTWPQKSVWHGSDPNGRRLTESYCETWRTEAPSATGQASSLLGGRLLGQSAASCHHAYIVLCIENSFMTASK
modifications: Endostatin
In the case of B6, the “IC50, induction of endothelial cell apoptosis” value in data set [1] was “no activity”. The tumor suppression result in data set [2] (5 mg/kg endostatin) was “not able to suppress tumor growth”. Also, the “tumor volume on day 10” value in data set [2] was 68.9±16.7 mm^3.
